{"source": "paper PMC7235218", "about": "“HIV-1 Tat – TLR4/MD2 interaction drives the expression of IDO-1 in monocytes derived dendritic cells through NF-κB dependent pathway” (Scientific Reports, 2020)", "binders": {"B1": {"name": "Recombinant HIV-1 Tat full length protein (Tat 1-101) fused to glutathione S-transferase (natural protein)", "chain": "MEPVDPNLEPWKHPGSQPRTACNNCYCKKCCFHCYACFTRKGLGISYGRKKRRQRRRAPQDSQTHQASLSKQPASQSRGDPTGPTESKKKVERETETDPFD", "notes": "Tat protein of HIV-1 group M subtype B (isolate SF2), full length protein, Tat 1-101; Endotoxin below 0.3 EU/µg; also called GST-Tat 1-101; GST-Tat1-101"}}, "biological_target": "T1, Recombinant human TLR4/MD2 complex (human, UniProt O00206 24-631; Q9Y6Y9 19-160)", "T1 construct": "Toll-like receptor 4 (TLR4), human, soluble recombinant; MD2 (lymphocyte antigen 96), human, recombinant; No catalogue number is printed; also called rTLR4/MD2; soluble recombinant TLR4/MD2; source: bought: R&D system", "T1 sequence (O00206 24-631, chain 1 of 2)": "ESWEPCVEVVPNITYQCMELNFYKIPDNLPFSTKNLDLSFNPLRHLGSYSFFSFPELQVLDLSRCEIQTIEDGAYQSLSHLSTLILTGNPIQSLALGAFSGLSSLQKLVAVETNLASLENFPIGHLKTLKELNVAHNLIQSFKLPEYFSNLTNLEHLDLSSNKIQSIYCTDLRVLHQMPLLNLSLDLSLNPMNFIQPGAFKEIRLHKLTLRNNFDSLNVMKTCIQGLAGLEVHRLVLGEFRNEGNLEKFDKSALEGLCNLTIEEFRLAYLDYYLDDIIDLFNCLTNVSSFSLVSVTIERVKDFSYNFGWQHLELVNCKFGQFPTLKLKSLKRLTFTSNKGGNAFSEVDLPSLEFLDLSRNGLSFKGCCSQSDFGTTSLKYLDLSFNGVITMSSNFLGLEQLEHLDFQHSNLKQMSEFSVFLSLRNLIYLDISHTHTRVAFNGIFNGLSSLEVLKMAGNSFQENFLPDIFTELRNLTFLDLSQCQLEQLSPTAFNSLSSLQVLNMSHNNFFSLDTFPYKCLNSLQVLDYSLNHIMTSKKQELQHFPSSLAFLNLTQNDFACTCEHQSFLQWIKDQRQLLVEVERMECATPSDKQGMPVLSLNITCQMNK", "T1 sequence (Q9Y6Y9 19-160, chain 2 of 2)": "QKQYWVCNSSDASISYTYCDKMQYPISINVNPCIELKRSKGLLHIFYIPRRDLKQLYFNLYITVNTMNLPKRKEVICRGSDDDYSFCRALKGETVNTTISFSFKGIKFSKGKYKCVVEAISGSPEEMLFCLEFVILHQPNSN", "experiment": "ELISA; solid-phase binding assay: recombinant TLR4/MD2 (1 µg/ml) coated on 96 maxisorp well plates overnight at 4 °C; GST or GST-Tat at 0.1-1 µM for 2 hours at room temperature; detected with anti-GST and a peroxidase-conjugated secondary antibody", "conditions": "both partners purified", "data": [{"binder": "B1", "values": [{"measurement": "binding result", "value": "binds"}]}]}
